Results as given in US20080107658A1 (AstraZeneca / MedImmune, published 2008).
Substitutions are numbered along the chain they refer to.

B1: 1252A5 IgG4 (antibody, V domains shown)
VH: QVQLVQSGAEVKKPGSSVKVSCKASGGTFSTYGISWVRQAPGQGLEWMGGIIPIFDTGNSAQSFQGRVTITADESTSTAYMELSSLRSEDTAVYYCARSSRIYDLNPSLTAYYDMDVWGQGTMVTVSS
VL: QSVLTQPPSVSAAPGQKVTISCSGSSSNIGNNYVSWYQQLPGTAPKLLIYDNNKRPSGIPDRFSGSKSGTSATLGITGLQTGDEADYYCGTWDSSLSAWVFGGGTKLTVL
notes: tested as whole human IgG4; also called germlined 1133C11
B2: G1152H5 human IgG4 (antibody, V domains shown)
VH: B1 VH with L105M, N106I, P107S, T110Q, A111P
VL: B1 VL
notes: tested as whole human IgG4; also called germlined 1152H5
B3: 1057F11 scFv (scFv, V domains shown)
VH: EVQLVETGGGVVQPGTSLRLSCAASGFTFSSHGMHWVRQAPGQGLEWVAHAWSDGSNKYYADSLKGRFTISRDNSRNTLYLQMNSLRAEDTAVYYCARDGQQLANYAMDVWGRGTTVTVSS
VL: DIQMTQSPSFLSASVGDRVTITCRASQGINSYLAWYQQIPGKAPNLLIYAASTLQSGVPSRFSGSGSGTEFTLTISSLQPEDFATYYCQQLNTYPFTFGPGTKVEIK
notes: purified scFv
B4: rat nerve growth factor (beta-NGF) (ligand, UniProt P25427 122-241, looked up)
chain: SSTHPVFHMGEFSVCDSVSVWVGDKTTATDIKGKEVTVLGEVNINNSVFKQYFFETKCRAPNPVESGCRGIDSKHWNSYCTTTHTFVKALTTDDKQAAWRFIRIDTACVCVLSRKAARRG
notes: mature; also called rat NGF; recombinant rat β-NGF
B5: 1033B2 scFv (scFv, V domains shown)
VH: QVQLQQSGAEVKKPGSSVKLSCKASGGTFSSFGISWVRQAPGQGLEWLGRIIPFLGPADYAQKFQGRVTITADESRSTAYMELSSLTSEDTAVYFCARSFYDILTGYYEGVFYYYMDVWGQGTMVTVSS
VL: QSVLIQPASVSGSPGQSITISCTGTSSDVGGYNYVSWYQQHPGKAPKLMIYEGSKRPSGVSNRFSGSKSGNTASLTISGLQAEDEADYYCSSYTTRSTRVFGGGTKLTVL
notes: purified scFv

Legend:
[1] = molecular target: T1, human nerve growth factor (beta-NGF) (human, UniProt P01138 122-241); assay: inhibition of human 125I-NGF binding to coated TrkA fusion protein
T1 construct: mature; also called human NGF; hu NGF
Method: (§1) Human TrkA and p75 receptor fusion proteins (R&D Systems) were diluted in Dulbecco's PBS (Gibco) to final concentrations of 10 nM and 0.6 nM, respectively. Maxisorp Nunc white 96 well microtitre plates (Nalge Nunc) were coated overnight at 4° C. with 100 μl/well of the diluted TrkA or p75 receptor solution. Plates were washed 3 times with PBS Tween 20, and then blocked with 200 μl/well 3% w/v bovine serum albumin (BSA) in PBS. Plates were washed after 1 h incubation at room temperature. Test antibodies were diluted to the desired concentration in assay buffer (0.5% w/v BSA and 0.05% v/v Tween 20 in PBS). […] Duplicate wells were prepared for each concentration of test sample. […] Bound radiolabel was quantified by addition of 100 μl/well Microscint 20 (Perkin Elmer) followed by counting using a Packard TopCount microplate liquid scintillation counter. Data were plotted and analysed using Graphpad Prism software to calculate IC₅₀ values for each experiment, and to derive the corresponding Ki according to the Cheng-Prusoff equation; Ki=IC₅₀/(1+D/Kd) Where: [0257]

[2] = molecular target: B4; assay: inhibition of rat 125I-NGF binding to coated p75 fusion protein, Cheng-Prusoff, n=3
Method: (§2) Competition binding experiments were designed in order to calculate binding inhibition constant (Ki) values. […] Ki values were then derived using the Cheng-Prusoff equation.
as §1

[3] = molecular target: B4; assay: inhibition of rat 125I-NGF binding to coated TrkA fusion protein
Method: as §1

[4] = molecular target: T1, human nerve growth factor (beta-NGF); assay: human 125I-NGF saturation binding to captured IgG4, one-site model
Method: (§3) Briefly, flashplates (Perkin Elmer SMP200) were coated with 100 μl/well of 2.2 μg/ml goat anti-human IgG (Sigma-Aldrich, UK) in phosphate buffered saline (PBS) for 1 h. Wells were washed with PBS and then blocked for 1 h with 200 μl/well PBS containing 3% w/v bovine serum albumin (BSA; Sigma-Aldrich, UK). […] Following incubation for 1 h plates were washed with PBS.
(§4) Plates were incubated overnight, and wells counted for 1 min on a gamma counter (TopCount NXT, Perkin Elmer). Specific binding was calculated according to the formula ‘specific binding=total binding−non-specific binding’. Binding curves were plotted and binding parameters determined according to a one-site saturation binding model using Prism software (GraphPad Software Inc., USA).

[5] = molecular target: T1, human nerve growth factor (beta-NGF); assay: inhibition of human 125I-NGF binding to coated p75 fusion protein, Cheng-Prusoff, n=3
Method: as §2, §1

[6] = molecular target: T1, human nerve growth factor (beta-NGF); assay: inhibition of human 125I-NGF binding to coated p75 fusion protein
Method: as §1

[7] = molecular target: B4; assay: inhibition of rat 125I-NGF binding to coated TrkA fusion protein, Cheng-Prusoff, n=3
Method: as §2, §1

[8] = molecular target: T1, human nerve growth factor (beta-NGF); assay: inhibition of human 125I-NGF binding to coated TrkA fusion protein, Cheng-Prusoff, n=3
Method: as §2, §1

[9] = molecular target: B4; assay: inhibition of rat 125I-NGF binding to coated p75 fusion protein
Method: as §1

[10] = molecular target: B4; assay: rat 125I-NGF saturation binding to captured IgG4, one-site model
Method: as §3, §4

[11] = molecular target: mouse nerve growth factor (mouse, UniProt P01139 122-241); assay: cell-based or functional assay
[12] = molecular target: T1, human nerve growth factor (beta-NGF); assay: cell-based or functional assay
[13] = molecular target: B4; assay: cell-based or functional assay
[14] = molecular target: B4; assay: purified scFv, inhibition of NGF binding to coated TrkA fusion protein (DELFIA)
Method: Crude scFv samples were prepared from periplasmic lysates of E. coli TG-1 bacteria transfected with selected phage for evaluation in the binding assay. […] Assay plates were washed with PBS/Tween 20, blocked for 2 h using 1% bovine serum albumin (BSA) in PBS, and washed again. […] Samples were transferred in a volume of 100 μl to assay plates and incubated for 60 min at room temperature. […] Briefly, plates were washed and 100 μl streptavidin Eu³⁺ added to each well, diluted 1/1000 in DELFIA assay buffer. Plates were incubated for a further 60 min at room temperature and washed with DELFIA wash buffer, followed by addition of 100 μl DELFIA enhancement solution to each well. Plates were read using a Wallac Victor fluorimetric plate reader (excitation wavelength 314 nm; emission wavelength 615 nm).
Purified scFv preparations were prepared as described in Example 3 of WO01/66754. Protein concentrations of purified scFv preparations were determined using the BCA method (Pierce).

[15] = molecular target: T2, human p75 receptor fusion protein (R&D Systems) (human, UniProt P08138 29-250); assay: unlabelled NGF displacing rat 125I-NGF from coated p75 fusion protein
T2 construct: bought fusion protein; also called p75 neurotrophin receptor
T2 sequence (looked up): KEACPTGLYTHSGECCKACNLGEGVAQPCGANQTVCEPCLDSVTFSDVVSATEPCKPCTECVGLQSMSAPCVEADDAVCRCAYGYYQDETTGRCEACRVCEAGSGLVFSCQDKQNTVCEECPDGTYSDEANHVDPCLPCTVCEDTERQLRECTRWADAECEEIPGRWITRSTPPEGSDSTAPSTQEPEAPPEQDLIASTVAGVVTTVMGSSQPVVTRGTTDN
Method: as §1

[16] = molecular target: T3, human TrkA receptor extracellular domain fusion protein (R&D Systems) (human, UniProt P04629 33-423); assay: unlabelled NGF displacing rat 125I-NGF from coated TrkA fusion protein
T3 construct: extracellular domain; bought fusion protein; also called TrkA receptor fusion protein
T3 sequence (P04629 33-423): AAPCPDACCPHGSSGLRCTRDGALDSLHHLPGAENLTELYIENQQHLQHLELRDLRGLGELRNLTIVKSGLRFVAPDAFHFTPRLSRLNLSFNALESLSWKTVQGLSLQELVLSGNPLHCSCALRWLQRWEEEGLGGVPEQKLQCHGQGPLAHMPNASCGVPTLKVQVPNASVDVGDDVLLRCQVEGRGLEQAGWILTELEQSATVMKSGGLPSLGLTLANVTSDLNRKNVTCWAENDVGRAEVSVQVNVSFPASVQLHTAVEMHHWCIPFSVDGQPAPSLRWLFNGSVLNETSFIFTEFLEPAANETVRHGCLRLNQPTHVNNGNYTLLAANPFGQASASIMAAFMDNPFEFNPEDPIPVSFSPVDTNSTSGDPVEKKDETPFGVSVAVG

mouse nerve growth factor, sequence (P01139 122-241): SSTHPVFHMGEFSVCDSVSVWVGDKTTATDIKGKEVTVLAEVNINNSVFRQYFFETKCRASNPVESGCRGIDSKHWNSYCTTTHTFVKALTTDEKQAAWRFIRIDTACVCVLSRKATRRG
T1 sequence (P01138 122-241): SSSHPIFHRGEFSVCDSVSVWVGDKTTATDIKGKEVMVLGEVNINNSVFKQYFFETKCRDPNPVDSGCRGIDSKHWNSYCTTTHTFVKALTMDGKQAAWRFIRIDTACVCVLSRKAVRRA

Row | Binder | IC50 [1] [nM] | Ki [1] [nM] | pKi [2] | IC50 [3] [nM] | Ki [3] [nM] | Kd [4] [nM] | pKi [5] | IC50 [6] [nM] | Ki [6] [nM] | pKi [7] | pKi [8] | IC50 [9] [nM] | Ki [9] [nM] | Kd [10] [nM] | IC50, FLIPR calcium mobilisation [11] [nM] | IC50, TF-1 cell proliferation [11] [nM] | IC50, FLIPR calcium mobilisation [12] [nM] | IC50, PC12 cell survival [12] [nM] | IC50, TF-1 cell proliferation [12] [nM] | IC50, FLIPR calcium mobilisation [13] [nM] | also measured
1 | B1 | 0.068 | 0.061 | 9.55 | 0.151 | 0.14 | 0.35 | 9.85 | 0.188 | 0.155 | 9.79 | 10.3 | 0.302 | 0.274 | 0.44 | 0.26 | 0.55 | 0.33 | 0.94 | 0.42 | 0.29 | IC50, PC12 cell survival [13]: 2.7 nM; IC50, TF-1 cell proliferation [13]: 0.72 nM
2 | B2 | 0.204 | 0.184 | 9.24 | 0.538 | 0.499 | 0.37 | 9.56 | 0.348 | 0.288 | 9.18 | 9.59 | 0.781 | 0.708 | 0.5 | 0.18 | 0.99 | 0.22 | 1.1 | 0.44 | 0.27 | IC50, PC12 cell survival [13]: 7.3 nM; IC50, TF-1 cell proliferation [13]: 1.44 nM
3 | B3 |  |  |  |  |  |  |  |  |  |  |  |  |  |  |  |  |  |  |  |  | binding result [14]: binds
4 | B4 |  |  |  |  |  |  |  |  |  |  |  |  |  |  |  |  |  |  |  |  | IC50 [15]: 0.783 nM; Ki [15]: 0.71 nM; IC50 [16]: 1.3 nM; Ki [16]: 1.2 nM
5 | B5 |  |  |  |  |  |  |  |  |  |  |  |  |  |  |  |  |  |  |  |  | binding result [14]: binds
